From US20240209078A1
Substitutions are numbered along the chain they refer to. Numbers in names are those of the source. Read-outs that look alike come from different tables or passages of the source. Values belong to the binder of their own block, whether it stands above or below them.

Tests used:
[1] = biological target: human MSLN (mesothelin) (human) (UniProt Q13421); test: cell-based or functional assay
[2] = biological target: human MSLN (mesothelin) (human) (UniProt Q13421); test: cell-based or functional assay; remark: listed apart in the source
human MSLN (human) [3] = biological target: human MSLN (human) (UniProt Q13421); test: cell-based or functional assay
human MSLN (human) [4] = biological target: human MSLN (human) (UniProt Q13421); test: cell-based affinity, flow cytometry on target-transfected CHO cells, nonlinear regression (one site - specific binding), mean of three measurements

B1: CH3 15-E11 CC×I2L×G4×scFc×G4×MS 15-B12 CC×I2L_GQ (SEQ ID NO 251) (bispecific antibody)
chain: QVQLVQSGAEVKKPGASVKVSCKASGYTFTNYWMNWVRQAPGQCLEWMGNIAYGVKGTNYNQKFQGRVTMTVDTSSSTAYMELSRLRSDDTAVYYCATRYFYVMDYWGQGTLVTVSSGGGGQGGGGQGGGGQDIQMTQSPSSLSASVGDRVTITCRASQDISNYLNWYQQKPGKVPKLLIYYTSRLHSGVPSRFSGSGSGTDFTLTISSLQPEDVATYYCVQYAQFPLTFGCGTKVEIKSGGGGQEVQLVESGGGLVQPGGSLKLSCAASGFTFNKYAMNWVRQAPGKGMEWVARIRSKYNNYATYYADAVKDRFTISRDDSKNTLYLQMNNLKTEDTAVYYCVRAGNFGSSYISYFAYWGQGTLVTVSSGGGGQGGGGQGGGGQQTVVTQEPSLTVSPGGTVTITCGSSTGAVTSGNYPNWIQKKPGQAPRGLIGGTKFLAPGTPARFSGSLEGGKAALTLSGVQPEDEAEYYCVLYYSNRWVFGSGTKLTVLGGGGCPPCPAPELLGGPSVFLFPPKPKDTLMISRTPEVTCVVVDVSHEEPEVKFNWYVDGVEVHNAKTKPCEEQYGSTYRCVSVLTVLHQDWLNGKEYKCKVSNKALPAPIEKTISKAKGQPREPQVYTLPPSREEMTKNQVSLTCLVKGFYPSDIAVEWESNGQPENNYKTTPPVLDSDGSFFLYSKLTVDKSRWQQGNVFSCSVMHEALHNHYTQKSLSLSPGKGGGGQGGGGQGGGGQGGGGQGGGGQGGGGQCPPCPAPELLGGPSVFLFPPKPKDTLMISRTPEVTCVVVDVSHEEPEVKFNWYVDGVEVHNAKTKPCEEQYGSTYRCVSVLTVLHQDWLNGKEYKCKVSNKALPAPIEKTISKAKGQPREPQVYTLPPSREEMTKNQVSLTCLVKGFYPSDIAVEWESNGQPENNYKTTPPVLDSDGSFFLYSKLTVDKSRWQQGNVFSCSVMHEALHNHYTQKSLSLSPGKGGGGQVQLQESGPGLVKPSETLSLTCTVSGGSISSSSYFWGWIRQPPGKCLEWIGNIYYSGSSNYNPSLKSRVTISVDTSKNQFSLKLSSVTAADTAVYYCARLPRGDRDAFDIWGQGTMVTVSSGGGGQGGGGQGGGGQDIVMTQSPSSLSASVGDRVTITCRASQGISNYLAWYQQKPGKVPKLLIYAASTLQSGVPSRFSGSGSGTDFTLTISSLQPEDFATYYCQQSYSTPFTFGCGTKVEIKSGGGGQEVQLVESGGGLVQPGGSLKLSCAASGFTFNKYAMNWVRQAPGKGMEWVARIRSKYNNYATYYADAVKDRFTISRDDSKNTLYLQMNNLKTEDTAVYYCVRAGNFGSSYISYFAYWGQGTLVTVSSGGGGQGGGGQGGGGQQTVVTQEPSLTVSPGGTVTITCGSSTGAVTSGNYPNWIQKKPGQAPRGLIGGTKFLAPGTPARFSGSLEGGKAALTLSGVQPEDEAEYYCVLYYSNRWVFGSGTKLTVL
cytotoxicity EC50, GSU KO CDH3 cells [1]: 512 pM | cytotoxicity EC50, E:T ratio 1:1, GSU KO CDH3 cells [2]: 108 pM | cytotoxicity EC50, E:T ratio 1:2, GSU KO CDH3 cells [2]: 446 pM | cytotoxicity EC50, E:T ratio 10:1, GSU KO CDH3 cells [2]: 39.6 pM | cytotoxicity EC50, GSU KO CDH3 cells [2]: 512 pM | cytotoxicity EC50, HCT 116 KO CDH3 cells [2]: 51.8 pM

B4: CH3 15-E11 VAG CC×I2L×G4×scFc×MS 15-B12 CC×I2L clipopt ID (SEQ ID NO 434) (bispecific antibody)
chain: B1 chain with K56A
cytotoxicity EC50, GSU KO CDH3 cells [2]: 75.2 pM | cytotoxicity EC50, HCT 116 KO CDH3 cells [2]: 5.9 pM

Further lines, with some results ahead:

fold gap of column 6 (HCT 116 KO CDH3 by Table 46) against double positive cells (human MSLN (human) [3]): 727 fold | Kd (human MSLN (human) [4]): 33800 pM
B2: CH3 15-E11 CC × I2L × G4 × scFc × G4 × MS 15-B12 CC × I2L_GQ (bispecific antibody)
chain: B1 chain
EC50 (cytotoxicity) on double positive cells; column head printed 'EC50 CHO hu CDH3 (+) & MSLN (+)'; value is that of HCT 116 wt in Table 46 (human MSLN (human) [3]): 0.071 pM | EC50 (cytotoxicity); column head printed 'EC50 CHO hu CDH3 (+)', table title HCT 116; value is that of HCT 116 KO CDH3 in Table 46 (human MSLN (human) [3]): 51.8 pM | EC50 on HCT 116 KO CDH3 (cytotoxicity; cells CDH3-, MSLN+) (human MSLN (human) [3]): 51.8 pM | EC50 on HCT 116 wt (cytotoxicity; cells CDH3+, MSLN+) (human MSLN (human) [3]): 0.07 pM

Kd (human MSLN (human) [4]): 40000 pM
B3: CH3 15-E11_1_VAG_CC × I2L × G4 × scFc × G4 × MS 15-B12 CC × I2L clipopt_DI (bispecific antibody)
chain: B1 chain with K56A
